# From patent CN111378037A
# Target: Human IL33-his (Human IL33 (NP_254274.1) Ser112-Thr270 with a C-terminal 6-histidine tag, expressed in E. coli) (human) (UniProt O95760)
# Assay: cell-based or functional assay
# Chain of UniProt O95760 (O95760 other isoform, or with tags, fused parts or gaps limits assumed, form in doubt): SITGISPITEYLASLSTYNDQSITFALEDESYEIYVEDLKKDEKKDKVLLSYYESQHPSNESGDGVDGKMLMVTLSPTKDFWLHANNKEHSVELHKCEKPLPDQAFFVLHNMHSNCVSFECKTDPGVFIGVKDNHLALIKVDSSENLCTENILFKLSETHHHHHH
substance,measurement,value
对照抗体 ANB020 (antibody),IC50 of inhibition of IL-5 production by KU812 cells stimulated with IL33,0.51 µg/mL
